Measurements: PMC11910139

Target: ENG-HA (endoglin, HA-tagged, ectopically expressed) (UniProt P17813)
Assay: flow cytometry on cells; cells (HEK293T with or without ENG overexpression, DPSCs with or without ENG knockdown or anti-ENG pretreatment, HUVECs) incubated with His-tagged DSP (0.5 μg/ml) or BSA at 37 °C for 1 h; detected with anti-His-tag mAb-Alexa Fluor 488 and PE anti-human ENG antibody

Sequence of UniProt P17813 (P17813 26-658): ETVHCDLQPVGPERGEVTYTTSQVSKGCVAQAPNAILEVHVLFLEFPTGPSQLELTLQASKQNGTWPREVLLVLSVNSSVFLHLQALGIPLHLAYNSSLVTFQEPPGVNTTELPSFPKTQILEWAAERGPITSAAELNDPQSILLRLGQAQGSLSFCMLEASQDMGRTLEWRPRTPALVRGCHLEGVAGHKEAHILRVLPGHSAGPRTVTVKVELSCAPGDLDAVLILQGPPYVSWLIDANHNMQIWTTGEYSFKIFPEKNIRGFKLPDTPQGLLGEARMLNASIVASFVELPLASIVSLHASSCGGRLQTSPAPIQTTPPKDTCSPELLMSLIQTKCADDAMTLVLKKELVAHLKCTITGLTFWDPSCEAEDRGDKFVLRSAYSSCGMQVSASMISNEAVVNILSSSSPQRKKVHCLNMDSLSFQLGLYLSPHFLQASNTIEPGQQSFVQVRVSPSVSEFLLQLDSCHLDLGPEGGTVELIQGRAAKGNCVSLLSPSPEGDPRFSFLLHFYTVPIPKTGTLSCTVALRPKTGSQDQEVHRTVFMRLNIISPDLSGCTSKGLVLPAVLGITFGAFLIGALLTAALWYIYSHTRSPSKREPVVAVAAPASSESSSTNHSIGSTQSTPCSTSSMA

fold increase of the DSP-His signal on HEK293T cells with ectopic ENG against cells without: 7.5 fold
Substance: recombinant DSP-His protein (domain or fragment)
